The MegaScale stability set (Tsuboyama et al. 2023)

B1: 1ZHC (parent)
chain: HEFRDEISVLKANNPHFDKIFEKHNQLDDDIKTAEQQNASDAEVSHMKKQKLKLKDEIHSMIIEYREK

Variants of: B1
Assay: folding stability dG (cDNA display proteolysis); higher = more stable
Conditions: PBS, room temperature

Variant	folding stability dG [kcal/mol]
HEFRDEIYVLKANNPHFDKIFEKHNQLDDDIKTAEQQNASDAEVSHMKKQKLKLKDEIHSMIIEYREK [S8Y]	0.782
HEFRDEIVVLKANNPHFDKIFEKHNQLDDDIKTAEQQNASDAEVSHMKKQKLKLKDEIHSMIIEYREK [S8V]	0.784
HEFRDEIPVLKANNPHFDKIFEKHNQLDDDIKTAEQQNASDAEVSHMKKQKLKLKDEIHSMIIEYREK [S8P]	-0.067
HEFRDEIQVLKANNPHFDKIFEKHNQLDDDIKTAEQQNASDAEVSHMKKQKLKLKDEIHSMIIEYREK [S8Q]	1.11
HEFRDEITVLKANNPHFDKIFEKHNQLDDDIKTAEQQNASDAEVSHMKKQKLKLKDEIHSMIIEYREK [S8T]	1.08
HEFRDEIRVLKANNPHFDKIFEKHNQLDDDIKTAEQQNASDAEVSHMKKQKLKLKDEIHSMIIEYREK [S8R]	1.26
HEFRDEIWVLKANNPHFDKIFEKHNQLDDDIKTAEQQNASDAEVSHMKKQKLKLKDEIHSMIIEYREK [S8W]	1
HEFRDEISNLKANNPHFDKIFEKHNQLDDDIKTAEQQNASDAEVSHMKKQKLKLKDEIHSMIIEYREK [V9N]	0.901
HEFRDEISRLKANNPHFDKIFEKHNQLDDDIKTAEQQNASDAEVSHMKKQKLKLKDEIHSMIIEYREK [V9R]	1.01
HEFRDEISCLKANNPHFDKIFEKHNQLDDDIKTAEQQNASDAEVSHMKKQKLKLKDEIHSMIIEYREK [V9C]	1.91
HEFRDEISSLKANNPHFDKIFEKHNQLDDDIKTAEQQNASDAEVSHMKKQKLKLKDEIHSMIIEYREK [V9S]	0.824
HEFRDEISDLKANNPHFDKIFEKHNQLDDDIKTAEQQNASDAEVSHMKKQKLKLKDEIHSMIIEYREK [V9D]	0.497
HEFRDEISLLKANNPHFDKIFEKHNQLDDDIKTAEQQNASDAEVSHMKKQKLKLKDEIHSMIIEYREK [V9L]	1.23
HEFRDEISWLKANNPHFDKIFEKHNQLDDDIKTAEQQNASDAEVSHMKKQKLKLKDEIHSMIIEYREK [V9W]	2.46
HEFRDEISMLKANNPHFDKIFEKHNQLDDDIKTAEQQNASDAEVSHMKKQKLKLKDEIHSMIIEYREK [V9M]	1.07
HEFRDEISHLKANNPHFDKIFEKHNQLDDDIKTAEQQNASDAEVSHMKKQKLKLKDEIHSMIIEYREK [V9H]	1.49
HEFRDEISKLKANNPHFDKIFEKHNQLDDDIKTAEQQNASDAEVSHMKKQKLKLKDEIHSMIIEYREK [V9K]	1.37
HEFRDEISELKANNPHFDKIFEKHNQLDDDIKTAEQQNASDAEVSHMKKQKLKLKDEIHSMIIEYREK [V9E]	0.933
HEFRDEISQLKANNPHFDKIFEKHNQLDDDIKTAEQQNASDAEVSHMKKQKLKLKDEIHSMIIEYREK [V9Q]	1.05
HEFRDEISILKANNPHFDKIFEKHNQLDDDIKTAEQQNASDAEVSHMKKQKLKLKDEIHSMIIEYREK [V9I]	1.06
HEFRDEISGLKANNPHFDKIFEKHNQLDDDIKTAEQQNASDAEVSHMKKQKLKLKDEIHSMIIEYREK [V9G]	0.417
HEFRDEISFLKANNPHFDKIFEKHNQLDDDIKTAEQQNASDAEVSHMKKQKLKLKDEIHSMIIEYREK [V9F]	2.05
HEFRDEISALKANNPHFDKIFEKHNQLDDDIKTAEQQNASDAEVSHMKKQKLKLKDEIHSMIIEYREK [V9A]	1.16
HEFRDEISTLKANNPHFDKIFEKHNQLDDDIKTAEQQNASDAEVSHMKKQKLKLKDEIHSMIIEYREK [V9T]	0.509
HEFRDEISVLCANNPHFDKIFEKHNQLDDDIKTAEQQNASDAEVSHMKKQKLKLKDEIHSMIIEYREK [K11C]	1.05
HEFRDEISVLPANNPHFDKIFEKHNQLDDDIKTAEQQNASDAEVSHMKKQKLKLKDEIHSMIIEYREK [K11P]	-0.825
HEFRDEISVLRANNPHFDKIFEKHNQLDDDIKTAEQQNASDAEVSHMKKQKLKLKDEIHSMIIEYREK [K11R]	1.96

Variant	folding stability dG [kcal/mol]
HEFRDEISVLFANNPHFDKIFEKHNQLDDDIKTAEQQNASDAEVSHMKKQKLKLKDEIHSMIIEYREK [K11F]	0.176
HEFRDEISVLAANNPHFDKIFEKHNQLDDDIKTAEQQNASDAEVSHMKKQKLKLKDEIHSMIIEYREK [K11A]	0.308
HEFRDEISVLYANNPHFDKIFEKHNQLDDDIKTAEQQNASDAEVSHMKKQKLKLKDEIHSMIIEYREK [K11Y]	-0.334
HEFRDEISVLQANNPHFDKIFEKHNQLDDDIKTAEQQNASDAEVSHMKKQKLKLKDEIHSMIIEYREK [K11Q]	0.591
HEFRDEISVLVANNPHFDKIFEKHNQLDDDIKTAEQQNASDAEVSHMKKQKLKLKDEIHSMIIEYREK [K11V]	0.083
HEFRDEISVLMANNPHFDKIFEKHNQLDDDIKTAEQQNASDAEVSHMKKQKLKLKDEIHSMIIEYREK [K11M]	0.616
HEFRDEISVLIANNPHFDKIFEKHNQLDDDIKTAEQQNASDAEVSHMKKQKLKLKDEIHSMIIEYREK [K11I]	0.839
HEFRDEISVLGANNPHFDKIFEKHNQLDDDIKTAEQQNASDAEVSHMKKQKLKLKDEIHSMIIEYREK [K11G]	-0.572
HEFRDEISVLTANNPHFDKIFEKHNQLDDDIKTAEQQNASDAEVSHMKKQKLKLKDEIHSMIIEYREK [K11T]	-0.058
HEFRDEISVLDANNPHFDKIFEKHNQLDDDIKTAEQQNASDAEVSHMKKQKLKLKDEIHSMIIEYREK [K11D]	-0.966
HEFRDEISVLSANNPHFDKIFEKHNQLDDDIKTAEQQNASDAEVSHMKKQKLKLKDEIHSMIIEYREK [K11S]	0.169
HEFRDEISVLWANNPHFDKIFEKHNQLDDDIKTAEQQNASDAEVSHMKKQKLKLKDEIHSMIIEYREK [K11W]	-0.052
HEFRDEISVLLANNPHFDKIFEKHNQLDDDIKTAEQQNASDAEVSHMKKQKLKLKDEIHSMIIEYREK [K11L]	1.07
HEFRDEISVAKANNPHFDKIFEKHNQLDDDIKTAEQQNASDAEVSHMKKQKLKLKDEIHSMIIEYREK [L10A]	-0.294
HEFRDEISVWKANNPHFDKIFEKHNQLDDDIKTAEQQNASDAEVSHMKKQKLKLKDEIHSMIIEYREK [L10W]	-0.69
HEFRDEISVMKANNPHFDKIFEKHNQLDDDIKTAEQQNASDAEVSHMKKQKLKLKDEIHSMIIEYREK [L10M]	-0.173
HEFRDEISVCKANNPHFDKIFEKHNQLDDDIKTAEQQNASDAEVSHMKKQKLKLKDEIHSMIIEYREK [L10C]	0.629
HEFRDEISVSKANNPHFDKIFEKHNQLDDDIKTAEQQNASDAEVSHMKKQKLKLKDEIHSMIIEYREK [L10S]	-0.995
HEFRDEISVYKANNPHFDKIFEKHNQLDDDIKTAEQQNASDAEVSHMKKQKLKLKDEIHSMIIEYREK [L10Y]	-0.44
HEFRDEISVGKANNPHFDKIFEKHNQLDDDIKTAEQQNASDAEVSHMKKQKLKLKDEIHSMIIEYREK [L10G]	-0.111
HEFRDEISVVKANNPHFDKIFEKHNQLDDDIKTAEQQNASDAEVSHMKKQKLKLKDEIHSMIIEYREK [L10V]	-0.406
HEFRDEISVIKANNPHFDKIFEKHNQLDDDIKTAEQQNASDAEVSHMKKQKLKLKDEIHSMIIEYREK [L10I]	0.415
HEFRDEISVLKQNNPHFDKIFEKHNQLDDDIKTAEQQNASDAEVSHMKKQKLKLKDEIHSMIIEYREK [A12Q]	0.395
HEFRDEISVLKTNNPHFDKIFEKHNQLDDDIKTAEQQNASDAEVSHMKKQKLKLKDEIHSMIIEYREK [A12T]	0.659
HEFRDEISVLKSNNPHFDKIFEKHNQLDDDIKTAEQQNASDAEVSHMKKQKLKLKDEIHSMIIEYREK [A12S]	0.404
HEFRDEISVLKVNNPHFDKIFEKHNQLDDDIKTAEQQNASDAEVSHMKKQKLKLKDEIHSMIIEYREK [A12V]	0.253
HEFRDEISVLKENNPHFDKIFEKHNQLDDDIKTAEQQNASDAEVSHMKKQKLKLKDEIHSMIIEYREK [A12E]	0.524

Variant	folding stability dG [kcal/mol]
HEFRDEISVLKDNNPHFDKIFEKHNQLDDDIKTAEQQNASDAEVSHMKKQKLKLKDEIHSMIIEYREK [A12D]	0.188
HEFRDEISVLKRNNPHFDKIFEKHNQLDDDIKTAEQQNASDAEVSHMKKQKLKLKDEIHSMIIEYREK [A12R]	0.983
HEFRDEISVLKFNNPHFDKIFEKHNQLDDDIKTAEQQNASDAEVSHMKKQKLKLKDEIHSMIIEYREK [A12F]	0.361
HEFRDEISVLKMNNPHFDKIFEKHNQLDDDIKTAEQQNASDAEVSHMKKQKLKLKDEIHSMIIEYREK [A12M]	0.648
HEFRDEISVLKGNNPHFDKIFEKHNQLDDDIKTAEQQNASDAEVSHMKKQKLKLKDEIHSMIIEYREK [A12G]	0.257
HEFRDEISVLKNNNPHFDKIFEKHNQLDDDIKTAEQQNASDAEVSHMKKQKLKLKDEIHSMIIEYREK [A12N]	0.287
HEFRDEISVLKKNNPHFDKIFEKHNQLDDDIKTAEQQNASDAEVSHMKKQKLKLKDEIHSMIIEYREK [A12K]	1.07
HEFRDEISVLKCNNPHFDKIFEKHNQLDDDIKTAEQQNASDAEVSHMKKQKLKLKDEIHSMIIEYREK [A12C]	1.42
HEFRDEISVLKHNNPHFDKIFEKHNQLDDDIKTAEQQNASDAEVSHMKKQKLKLKDEIHSMIIEYREK [A12H]	0.398
HEFRDEISVLKYNNPHFDKIFEKHNQLDDDIKTAEQQNASDAEVSHMKKQKLKLKDEIHSMIIEYREK [A12Y]	0.632
HEFRDEISVLKINNPHFDKIFEKHNQLDDDIKTAEQQNASDAEVSHMKKQKLKLKDEIHSMIIEYREK [A12I]	0.482
HEFRDEISVLKWNNPHFDKIFEKHNQLDDDIKTAEQQNASDAEVSHMKKQKLKLKDEIHSMIIEYREK [A12W]	-0.494
HEFRDEISVLKLNNPHFDKIFEKHNQLDDDIKTAEQQNASDAEVSHMKKQKLKLKDEIHSMIIEYREK [A12L]	0.297
HEFRDEISVLKPNNPHFDKIFEKHNQLDDDIKTAEQQNASDAEVSHMKKQKLKLKDEIHSMIIEYREK [A12P]	-0.496
HEFRDEISVLKAHNPHFDKIFEKHNQLDDDIKTAEQQNASDAEVSHMKKQKLKLKDEIHSMIIEYREK [N13H]	0.775
HEFRDEISVLKAQNPHFDKIFEKHNQLDDDIKTAEQQNASDAEVSHMKKQKLKLKDEIHSMIIEYREK [N13Q]	1.22
HEFRDEISVLKAANPHFDKIFEKHNQLDDDIKTAEQQNASDAEVSHMKKQKLKLKDEIHSMIIEYREK [N13A]	0.764
HEFRDEISVLKAINPHFDKIFEKHNQLDDDIKTAEQQNASDAEVSHMKKQKLKLKDEIHSMIIEYREK [N13I]	1.31
HEFRDEISVLKAKNPHFDKIFEKHNQLDDDIKTAEQQNASDAEVSHMKKQKLKLKDEIHSMIIEYREK [N13K]	0.586
HEFRDEISVLKALNPHFDKIFEKHNQLDDDIKTAEQQNASDAEVSHMKKQKLKLKDEIHSMIIEYREK [N13L]	1.44
HEFRDEISVLKAENPHFDKIFEKHNQLDDDIKTAEQQNASDAEVSHMKKQKLKLKDEIHSMIIEYREK [N13E]	0.701
HEFRDEISVLKADNPHFDKIFEKHNQLDDDIKTAEQQNASDAEVSHMKKQKLKLKDEIHSMIIEYREK [N13D]	0.311
HEFRDEISVLKAFNPHFDKIFEKHNQLDDDIKTAEQQNASDAEVSHMKKQKLKLKDEIHSMIIEYREK [N13F]	0.565
HEFRDEISVLKAMNPHFDKIFEKHNQLDDDIKTAEQQNASDAEVSHMKKQKLKLKDEIHSMIIEYREK [N13M]	1.33
HEFRDEISVLKAGNPHFDKIFEKHNQLDDDIKTAEQQNASDAEVSHMKKQKLKLKDEIHSMIIEYREK [N13G]	0.346
